Assay [1] addresses wild-type raccoon dog parvovirus strain RDPV/CL/2016, capsid of VP2 (raccoon dog parvovirus, strain …). In words: BLI. A general note: BLI is a label-free optical method that tracks binding on a fibre tip over time.
The target of assay [2] is wild-type raccoon dog parvovirus strain RDPV/FLD/2010, capsid of VP2 (raccoon dog parvovirus, strain …). Kind of assay: BLI.

B1: raccoon dog transferrin receptor ectodomain (recombinant RDTfR, from residue 121, C-terminal 6x His) (receptor)
chain: EEYFPETPSRLFWTDLKTMLSERLSNTDFTNTMRWLNENSYVPREAGSQKDESLALLIENRFREFQLSKSWRDEHFVKIQVKSSNAQNTVTIVGTESGLVYLVENPEGYVAYSKATTVTGRLVHVNFGTKKDFENLKSPVNGSLVIARAGKITFAEKVANAQSYNALGVLIYMDQARFPIVNAQIPFFGHAHLGTGDPYTPGFPSFNHTQFPPSQSSGLPSIPVQTIPRAVAEKLFENMEGDCPSAWEIDPSCRLETSPNKNVKLTVNNVLKEIRIFNIFGVIKGFEEPDRYVVIGAQRDAWGPGAAKSSVGTALLLELARIFSDMVLKGGFKPSRSIVFASWSAGDFGAIGATEWLEGYLSSLHLKAFTYINLDKAILGTSNFKVSASPLLYSLLEKTMKDVKHPITGQSLYRDSNWINKVEKWSLDNAAFPFLAYSGIPAVSFCFCEDTDYPYLGTTMDLYENLNQKIPQLNKMARGAAEVAGQLIIKLTYDLELNLNYEMYNDKILSFVRDMNQFRTDLKEMGLNLQWLYSARGDFFRATSRLTTDYKNAERTNRFVMREINDRIMKVEHNFLSPYVSPRDSPFRHIFWGSGSHTLPALVEHLKLRQKNNSAFNETLLRNQLALATWTIQGAANALSGDIWDIDNEL
Regarding B1, the values for the koff in assay [1] and in assay [2] were 0.00441 s⁻¹ and 0.0126 s⁻¹, respectively.
